Results taken from the supplement of paper PMC9428881.
± gives the standard error.

Experiment: background-corrected fluorescence of 3'-dye-labeled ssDNA relative to brightest sequence (3'-GCGCG) (fraction); higher = brighter dye fluorescence (less quenching)
Summary of the method: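 Single-stranded DNA was built on glass slides by light-directed phosphoramidite synthesis, ending in a 3' Cy3 or Cy5 dye beside each of 1024 permuted pentamers. Arrays were washed in acetonitrile for 2 h at r.t., then scanned at 532 or 635 nm before and after overnight ethylenediamine/ethanol deprotection. Each value averages 10 features per array and at least 3 syntheses. Fluorescence, corrected by subtracting unlabeled-oligo background, is scaled to the brightest sequence.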

| Sequence | background-corrected fluorescence (dye: Cy3 (3' terminal)) | background-corrected fluorescence (dye: Cy5 (3' terminal)) |
| --- | --- | --- |
| TTTTTTGAGCATGCTCATGATTTTTTTTTTTTTTTCTAGC [CGATC] | 0.508 ± 0.033 | 0.407 ± 0.04 |
| TTTTTTCATCATGATCAGCATTTTTTTTTTTTTTTGGCGT [TGCGG] | 0.643 ± 0.035 | 0.558 ± 0.057 |
| TTTTTGCATCATCAGCATGATTTTTTTTTTTTTTTTGGTC [CTGGT] | 0.478 ± 0.024 | 0.387 ± 0.04 |
| TTTTTTGATGCGCAGCATGCTTTTTTTTTTTTTTTCATTA [ATTAC] | 0.554 ± 0.021 | 0.398 ± 0.027 |
| TTTTTTCATGCTGAGCATGCTTTTTTTTTTTTTTTGACTA [ATCAG] | 0.491 ± 0.021 | 0.416 ± 0.029 |
| TTTTTTCATGATGATGATGATTTTTTTTTTTTTTTGCCCC [CCCCG] | 0.32 ± 0.038 | 0.272 ± 0.012 |
| TTTTTGCATGATGCTCATGATTTTTTTTTTTTTTTTCAGC [CGACT] | 0.492 ± 0.012 | 0.393 ± 0.047 |
| TTTTTGCATGCTGCTCATCATTTTTTTTTTTTTTTTAAGG [GGAAT] | 0.627 ± 0.024 | 0.518 ± 0.045 |
| TTTTTTGATGCTGCTGATGCTTTTTTTTTTTTTTTCAACA [ACAAC] | 0.489 ± 0.0058 | 0.368 ± 0.022 |
| TTTTTTGCTCAGCAGCAGCATTTTTTTTTTTTTTTAGTTT [TTTGA] | 0.577 ± 0.017 | 0.404 ± 0.022 |
| TTTTTTGCGCATGATCATCATTTTTTTTTTTTTTTATCGG [GGCTA] | 0.609 ± 0.022 | 0.504 ± 0.027 |
| TTTTTTGATCATGATGATCATTTTTTTTTTTTTTTCGCCG [GCCGC] | 0.647 ± 0.017 | 0.506 ± 0.046 |
| TTTTTGCATGCGCATGATGCTTTTTTTTTTTTTTTTATCA [ACTAT] | 0.478 ± 0.033 | 0.407 ± 0.053 |
| TTTTTGCATGCGCAGCAGCATTTTTTTTTTTTTTTTATTT | 0.539 ± 0.04 | 0.381 ± 0.021 |
| TTTTTGCATGATGATCATCATTTTTTTTTTTTTTTTCCGG [GGCCT] | 0.617 ± 0.0071 | 0.539 ± 0.037 |
| TTTTTTGCTCAGCATCATGCTTTTTTTTTTTTTTTAGTGA | 0.645 ± 0.022 | 0.536 ± 0.037 |
| TTTTTGCATCATGCTCATGCTTTTTTTTTTTTTTTTGAGA [AGAGT] | 0.679 ± 0.038 | 0.593 ± 0.044 |
| TTTTTTGCTGATGATGATCATTTTTTTTTTTTTTTACCCG [GCCCA] | 0.505 ± 0.03 | 0.411 ± 0.03 |
| TTTTTGCATGCTCATCATCATTTTTTTTTTTTTTTTAGGG [GGGAT] | 0.653 ± 0.032 | 0.55 ± 0.037 |
| TTTTTTGATGATCAGCATCATTTTTTTTTTTTTTTCCGTG [GTGCC] | 0.533 ± 0.0058 | 0.435 ± 0.029 |
| TTTTTTGCTGCTGCTCATGCTTTTTTTTTTTTTTTAAAGA [AGAAA] | 0.693 ± 0.03 | 0.568 ± 0.03 |
| TTTTTTCATGATCATCATGCTTTTTTTTTTTTTTTGCGGA [AGGCG] | 0.786 ± 0.033 | 0.689 ± 0.033 |
| TTTTTGCATGCTGCTCATGATTTTTTTTTTTTTTTTAAGC [CGAAT] | 0.524 ± 0.023 | 0.417 ± 0.029 |

| Sequence | background-corrected fluorescence (dye: Cy3 (3' terminal)) | background-corrected fluorescence (dye: Cy5 (3' terminal)) |
| --- | --- | --- |
| TTTTTGCATCATGCTCAGCATTTTTTTTTTTTTTTTGAGT | 0.659 ± 0.023 | 0.539 ± 0.029 |
| TTTTTTCAGCATGATGAGCATTTTTTTTTTTTTTTGTCCT [TCCTG] | 0.464 ± 0.02 | 0.346 ± 0.024 |
| TTTTTTCATGCTGCTCATGCTTTTTTTTTTTTTTTGAAGA [AGAAG] | 0.6356 ± 0.0052 | 0.582 ± 0.029 |
| TTTTTTGCTCATGAGCATGCTTTTTTTTTTTTTTTAGCTA [ATCGA] | 0.512 ± 0.0099 | 0.4 ± 0.019 |
| TTTTTTCATGCTGATGATCATTTTTTTTTTTTTTTGACCG [GCCAG] | 0.524 ± 0.032 | 0.428 ± 0.043 |
| TTTTTTGATCATGATGCTGATTTTTTTTTTTTTTTCGCAC [CACGC] | 0.435 ± 0.025 | 0.342 ± 0.06 |
| TTTTTTGATGAGCATCATCATTTTTTTTTTTTTTTCCTGG [GGTCC] | 0.557 ± 0.023 | 0.47 ± 0.054 |
| TTTTTGCATGATCATGCTGATTTTTTTTTTTTTTTTCGAC [CAGCT] | 0.448 ± 0.03 | 0.378 ± 0.038 |
| TTTTTGCATGATCATGATCATTTTTTTTTTTTTTTTCGCG [GCGCT] | 0.93 ± 0.023 | 0.964 ± 0.064 |
| TTTTTTGCTGATGCTCATCATTTTTTTTTTTTTTTACAGG [GGACA] | 0.646 ± 0.034 | 0.511 ± 0.053 |
| TTTTTTCAGCATCATGAGCATTTTTTTTTTTTTTTGTGCT [TCGTG] | 0.504 ± 0.024 | 0.414 ± 0.05 |
| TTTTTTGATCATGATCATGATTTTTTTTTTTTTTTCGCGC | 0.759 ± 0.032 | 0.66 ± 0.052 |
| TTTTTTCATGCTGATCATCATTTTTTTTTTTTTTTGACGG [GGCAG] | 0.65 ± 0.026 | 0.585 ± 0.076 |
| TTTTTTGATGCTGAGCAGCATTTTTTTTTTTTTTTCACTT | 0.498 ± 0.016 | 0.351 ± 0.022 |
| TTTTTTGATGATGCGCATCATTTTTTTTTTTTTTTCCATG [GTACC] | 0.542 ± 0.026 | 0.361 ± 0.035 |
| TTTTTTCAGCATGATGATCATTTTTTTTTTTTTTTGTCCG [GCCTG] | 0.54 ± 0.027 | 0.429 ± 0.081 |
| TTTTTTCATGCTGCTGCTCATTTTTTTTTTTTTTTGAAAG | 0.574 ± 0.028 | 0.431 ± 0.056 |
| TTTTTTGAGCATCATGCGCATTTTTTTTTTTTTTTCTGAT [TAGTC] | 0.59 ± 0.02 | 0.455 ± 0.036 |
| TTTTTTCAGCATCATGCTCATTTTTTTTTTTTTTTGTGAG [GAGTG] | 0.619 ± 0.028 | 0.472 ± 0.057 |
| TTTTTGCATGAGCATGATGATTTTTTTTTTTTTTTTCTCC [CCTCT] | 0.335 ± 0.042 | 0.268 ± 0.019 |
| TTTTTTCATCATGCTGCTGCTTTTTTTTTTTTTTTGGAAA [AAAGG] | 0.642 ± 0.038 | 0.534 ± 0.035 |
| TTTTTTGATGCTGCTGAGCATTTTTTTTTTTTTTTCAACT | 0.53 ± 0.011 | 0.342 ± 0.018 |
| TTTTTTCATGAGCAGCAGCATTTTTTTTTTTTTTTGCTTT [TTTCG] | 0.5304 ± 0.0051 | 0.384 ± 0.038 |

| Sequence | background-corrected fluorescence (dye: Cy3 (3' terminal)) | background-corrected fluorescence (dye: Cy5 (3' terminal)) |
| --- | --- | --- |
| TTTTTTCATGCTGATGCTCATTTTTTTTTTTTTTTGACAG | 0.547 ± 0.023 | 0.423 ± 0.036 |
| TTTTTGCATGAGCATCATGATTTTTTTTTTTTTTTTCTGC [CGTCT] | 0.491 ± 0.029 | 0.368 ± 0.024 |
| TTTTTGCATGCTCATGAGCATTTTTTTTTTTTTTTTAGCT [TCGAT] | 0.57 ± 0.025 | 0.42 ± 0.035 |
| TTTTTTCATGAGCATCAGCATTTTTTTTTTTTTTTGCTGT [TGTCG] | 0.594 ± 0.011 | 0.458 ± 0.038 |
| TTTTTGCATCATGCTGATCATTTTTTTTTTTTTTTTGACG [GCAGT] | 0.536 ± 0.016 | 0.433 ± 0.063 |
| TTTTTTGATCAGCATGATCATTTTTTTTTTTTTTTCGTCG [GCTGC] | 0.609 ± 0.03 | 0.463 ± 0.024 |
| TTTTTTCAGCATGCGCATGATTTTTTTTTTTTTTTGTATC [CTATG] | 0.417 ± 0.024 | 0.309 ± 0.019 |
| TTTTTTCATGAGCATGATGCTTTTTTTTTTTTTTTGCTCA [ACTCG] | 0.485 ± 0.016 | 0.386 ± 0.032 |
| TTTTTTGAGCATCATCAGCATTTTTTTTTTTTTTTCTGGT [TGGTC] | 0.653 ± 0.018 | 0.557 ± 0.035 |
| TTTTTTGATCAGCAGCAGCATTTTTTTTTTTTTTTCGTTT [TTTGC] | 0.528 ± 0.017 | 0.393 ± 0.026 |
| TTTTTTGATGATGATCAGCATTTTTTTTTTTTTTTCCCGT [TGCCC] | 0.585 ± 0.034 | 0.48 ± 0.021 |
| TTTTTTCAGCATCAGCATGATTTTTTTTTTTTTTTGTGTC [CTGTG] | 0.4591 ± 0.0035 | 0.356 ± 0.068 |
| TTTTTTGCTGAGCATCATCATTTTTTTTTTTTTTTACTGG [GGTCA] | 0.623 ± 0.022 | 0.481 ± 0.023 |
| TTTTTTGCTCATCAGCATGCTTTTTTTTTTTTTTTAGGTA [ATGGA] | 0.564 ± 0.027 | 0.465 ± 0.06 |
| TTTTTTCATCAGCATGCTGCTTTTTTTTTTTTTTTGGTAA [AATGG] | 0.573 ± 0.022 | 0.458 ± 0.031 |
| TTTTTGCATCAGCATGCGCATTTTTTTTTTTTTTTTGTAT [TATGT] | 0.53 ± 0.024 | 0.418 ± 0.031 |
| TTTTTTGATGCTGATGCTGATTTTTTTTTTTTTTTCACAC | 0.392 ± 0.006 | 0.311 ± 0.024 |
| TTTTTTGCTCATCATGAGCATTTTTTTTTTTTTTTAGGCT [TCGGA] | 0.596 ± 0.014 | 0.435 ± 0.028 |
| TTTTTGCATCATGATGCGCATTTTTTTTTTTTTTTTGCAT [TACGT] | 0.529 ± 0.02 | 0.394 ± 0.02 |
| TTTTTTCATGCTCAGCATCATTTTTTTTTTTTTTTGAGTG [GTGAG] | 0.578 ± 0.031 | 0.445 ± 0.054 |
| TTTTTTGAGCAGCATCATGCTTTTTTTTTTTTTTTCTTGA [AGTTC] | 0.615 ± 0.027 | 0.53 ± 0.07 |
| TTTTTTGCTGCTCATGCGCATTTTTTTTTTTTTTTAAGAT [TAGAA] | 0.564 ± 0.024 | 0.496 ± 0.081 |
| TTTTTTGCTGATCAGCAGCATTTTTTTTTTTTTTTACGTT [TTGCA] | 0.552 ± 0.018 | 0.433 ± 0.029 |
